# Data published in US20160060340A1.
# How the values were obtained:
# FOLR1-mycHis (human) [1] = target: FOLR1-mycHis (human) (UniProt P15328); test: SPR (Biacore T100), antibody captured on CM5 chip, FOLR1-mycHis as analyte, single-cycle kinetics, 1:1 binding model
# FOLR1-mycHis (human) [2] = target: FOLR1-mycHis (human) (UniProt P15328); test: SPR as in Example 29, antibody captured, FOLR1-mycHis as analyte
# Chain of FOLR1-mycHis (human) (P15328 25-233): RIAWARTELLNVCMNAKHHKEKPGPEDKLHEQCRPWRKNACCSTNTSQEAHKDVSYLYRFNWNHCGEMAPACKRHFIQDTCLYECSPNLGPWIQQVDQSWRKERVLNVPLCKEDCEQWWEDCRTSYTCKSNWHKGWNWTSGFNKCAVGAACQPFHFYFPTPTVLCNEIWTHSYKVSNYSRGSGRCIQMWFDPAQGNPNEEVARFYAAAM
Substance,Kd (FOLR1-mycHis (human) [1]) [nM],affinity as percent of that of HuRA15-7CTAcc antibody (FOLR1-mycHis (human) [2]) [%]
LK26 antibody (GeneTex),66,
MORAb-003DF antibody,,1.1
MOv18 antibody (ALEXIS BIO…),92,
